The values below come from publication PMC6063412, “Development of monoclonal anti-PDGF-CC antibodies as tools for investigating human tissue expression and for blocking PDGF-CC induced PDGFRα signalling in vivo” (PLoS ONE, 2018).

The target of assay [1] is T1, PDGF-AA (UniProt P04085).
T1 construct: platelet-derived growth factor A chain homodimer
In words: ELISA; 96-well plate coated with PDGF-AA, PDGF-BB, PDGF-CC or PDGF-DD; 6B3 applied (methods: hybridoma supernatant in dilution series), anti-mouse IgG-AP, absorbance at 405 nm. To be noted: one partner purified.

Assay [2] has as its target T2, PDGF-BB (UniProt P01127).
T2 construct: platelet-derived growth factor B chain homodimer
The assay is described as above. To be noted: one partner purified.

Assay [3] deals with T3, human PDGF-DD (Homo sapiens, UniProt Q9GZP0). In words: immunoblot; recombinant PDGF proteins run reduced and non-reduced, blotted and probed with murine mAb IgG. To be noted: both partners purified.
In assay [4] the target is T4, human latent full-length PDGF-CC (Homo sapiens, UniProt Q9NRA1).
T4 construct: platelet-derived growth factor C, human, latent full-length form with the CUB domain; also called hPCf; latent PDGF-CC
T4 sequence (Q9NRA1 23-345): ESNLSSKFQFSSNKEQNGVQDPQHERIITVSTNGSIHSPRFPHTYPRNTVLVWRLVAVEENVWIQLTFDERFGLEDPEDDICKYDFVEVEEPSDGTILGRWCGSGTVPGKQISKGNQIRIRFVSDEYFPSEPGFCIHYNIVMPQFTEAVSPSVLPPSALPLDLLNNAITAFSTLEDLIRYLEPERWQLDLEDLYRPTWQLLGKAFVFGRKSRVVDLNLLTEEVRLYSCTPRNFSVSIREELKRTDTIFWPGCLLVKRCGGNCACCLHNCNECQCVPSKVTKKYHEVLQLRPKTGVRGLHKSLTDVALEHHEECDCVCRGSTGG
Described as above. To be noted: both partners purified.

For assay [5], the target named is T5, recombinant human PDGF-CC core domain protein (activated PDGF-CC, growth factor domain) (human, UniProt Q9NRA1).
T5 construct: platelet-derived growth factor C, human, core domain (growth factor domain, GFD) released from the N-terminal CUB domain; also called hPCc; active PDGF-CC
T5 sequence (Q9NRA1 230-345): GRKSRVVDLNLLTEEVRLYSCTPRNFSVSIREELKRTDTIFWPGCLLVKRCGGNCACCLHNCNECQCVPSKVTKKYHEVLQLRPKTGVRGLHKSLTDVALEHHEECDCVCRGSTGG
The assay is described as above. To be noted: both partners purified.

For assay [6], the target named is T6, endogenous human PDGF-CC in A549 cells and placental tissue (Homo sapiens (endogenous, A549 and …, UniProt Q9NRA1)).
T6 construct: platelet-derived growth factor C, endogenous; source: endogenous, paraffin-embedded sections of the A549 cell line and human placental tissue
T6 sequence (Q9NRA1 23-345): as the sequence (Q9NRA1 23-345) above
In words: immunostaining of cells or tissue; paraffin-embedded sections of A549 cells and human placenta, citric acid antigen retrieval, 6B3 at 1.5 μg/ml, anti-mouse-HRP and DAB; with or without 1 h pre-incubation of 6B3 with 6.7 X excess PDGF-CC His6 (10 μg/ml). The conditions noted are these: one partner purified.

Assay [7] has as its target T1, PDGF-AA. The experiment in a line: ELISA; data not shown; as the 6B3 ELISA on coated PDGF-AA, PDGF-BB, PDGF-CC and PDGF-DD, with other clones. To be noted: one partner purified. (An ELISA detects its analyte on a solid surface through an enzyme-linked reagent.)
Assay [8] has as its target T3, human PDGF-DD. The description is as above. The conditions noted are these: one partner purified.
Assay [9] deals with T2, PDGF-BB. Described as above. To be noted: one partner purified.

T2 sequence (P01127 82-190): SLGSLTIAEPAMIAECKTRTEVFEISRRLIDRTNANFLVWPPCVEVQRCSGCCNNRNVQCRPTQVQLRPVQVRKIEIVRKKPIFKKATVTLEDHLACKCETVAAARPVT

B1: monoclonal anti-PDGF-CC antibody 6B3 (antibody, V domains shown)
VH: QVQLQQSGVEVARPGASVKLSCKASGYTFRSYGITWVRQRTGQGLEWIGEIYPRSGKTYYNEKFKGKATLTADTSSSTVYMELRSLTSEDSAVYFCAREGYGYDGGYFDYWGQGTTLTVSS
VL: DIVMTQSPSSLAMSVGQKVTMSCKSSQSLLNSRNQKNYLAWYQQKPGQSPKLLVYFASTRESGVPDRFTGSGSGTDFTLTISSVQAEDLAVYYCQQHYSTPLTFGAGTKLELK
notes: VH CDR1 (Kabat combined with Chothia); VH CDR2; VH CDR3; VL CDR1 (Kabat combined with Chothia); VL CDR2; VL CDR3; Mouse IgG2a, kappa; Only the CDRs are printed; frameworks are not; also called mAb 6B3; clone 6B3; source: mouse hybridoma; culture supernatant, or IgG purified (HiTrap-Protein G)
In the case of B1, the binding result with PDGF-AA [1] is “no binding”; in the assay with PDGF-BB [2], “no binding”; with human PDGF-DD [3], “no binding”; in assay [4] it was “binds”; in [5], “binds”; in [6], “binds”.

B2: monoclonal anti-PDGF-CC antibody 11F5 (antibody, V domains shown)
VH: QVQLQQSGAELARPGASVKLSCKASGYIFISYGISWVKQRTGQGLEWIGEIYPRSGKTYYNEKFKDKAALTADKSSSIAYMELRSLTSEDSAVYFCAREGYGYDGGYFDYWGQGTILTVSS
VL: DIVMTQSPSSLAMSVGQKVAVSCKSSQSLLNSSNQKNYLAWYQQKPGQSPKLLVYFASTRDSGVPDRFTGSGSGTDFTLTISSVQAEDLAVYYCQQHYSTPLTFGAGTKLELK
notes: VH CDR1 (Kabat combined with Chothia); VH CDR2; VH CDR3; VL CDR1 (Kabat combined with Chothia); VL CDR2; VL CDR3; Mouse IgG2a, kappa; Only the CDRs are printed; frameworks are not; also called clone 11F5; source: mouse hybridoma; culture supernatant, or IgG purified (HiTrap-Protein G)
Turning to B2, the binding result with PDGF-AA [7], with human PDGF-DD [8] and in the assay with PDGF-BB [9] was “no binding” each time.

B3: monoclonal anti-PDGF-CC antibody 19C7 (antibody, V domains shown)
VH: QVQLQQSGVEVARPGASVKLSCKASGYTFRSYGITWVRQRTGQGLEWIGEIYPRSGKTYYNEKFKGKATLTADTSSSTVYMELRSLTSEDSAVYFCAREGYGYDGGYFDYWGQGTTLTVSS
VL: DIVMTQSPSSLAMSVGQKVTMSCKSSQSLLNSRNQKNYLAWYQQKPGQSPKLLVYFASTRESGVPDRFTGSGSGTDFTLTISSVQAEDLAVYYCQQHYSTPLTFGAGTKLELK
notes: VH CDR1 (Kabat combined with Chothia); VH CDR2; VH CDR3; VL CDR1 (Kabat combined with Chothia); VL CDR2; VL CDR3; Mouse IgG2a, kappa; CDRs identical to those of 6B3; also called clone 19C7; source: mouse hybridoma; culture supernatant, or IgG purified (HiTrap-Protein G)
On to B3, for which the binding result with PDGF-AA [7], in the assay with human PDGF-DD [8] and with PDGF-BB [9] was “no binding” throughout.
